B1: human B7-1 on transfected cells (ligand, UniProt P33681 35-288, looked up)
chain: VIHVTKEVKEVATLSCGHNVSVEELAQTRIYWQKEKKMVLTMMSGDMNIWPEYKNRTIFDITNNLSIVILALRPSDEGTYECVVLKYEKDAFKREHLAEVTLSVKADFPTPSISDFEIPTSNIRRIICSTSGGFPEPHLSWLENGEELNAINTTVSQDPETELYAVSSKLDFNMTTNHSFMCLIKYGHLRVNQTFNWNTTKQEHFPDNLLPSWAITLISVNGIFVICCLTYCFAPRCRERRRNERLRRESVRPV
notes: whole, on cells; also called CD80
B2: human PD-L2 on transfected cells (ligand, UniProt Q9BQ51 20-273, looked up)
chain: LFTVTVPKELYIIEHGSNVTLECNFDTGSHVNLGAITASLQKVENDTSPHRERATLLEEQLPLGKASFHIPQVQVRDEGQYQCIIIYGVAWDYKYLTLKVKASYRKINTHILKVPETDEVELTCQATGYPLAEVSWPNVSVPANTSHSRTPEGLYQVTSVLRLKPPPGRNFSCVFWNTHVRELTLASIDLQSQMEPRTHPTWLLHIFIPFCIIAFIFIATVIALRKQLCQKLYSSKDTTKRPVTTTKREVNSAI
notes: whole, on cells; also called B7-DC
B3: human B7h on transfected cells (ligand, UniProt O75144 19-302, looked up)
chain: DTQEKEVRAMVGSDVELSCACPEGSRFDLNDVYVYWQTSESKTVVTYHIPQNSSLENVDSRYRNRALMSPAGMLRGDFSLRLFNVTPQDEQKFHCLVLSQSLGFQEVLSVEVTLHVAANFSVPVVSAPHSPSQDELTFTCTSINGYPRPNVYWINKTDNSLLDQALQNDTVFLNMRGLYDVVSVLRIARTPSVNIGCCIENVLLQQNLTVGSQTGNDIGERDKITENPVSTGEKNAATWSILAVLCLLVVVAVAIGWVCRDRCLQHSYAGAWAVSPETELTGHV
notes: whole, on cells; also called ICOS-L
B4: human ICOS on transfected cells (receptor, UniProt Q9Y6W8 21-199, looked up)
chain: EINGSANYEMFIFHNGGVQILCKYPDIVQQFKMQLLKGGQILCDLTKTKGSGNTVSIKSLKFCHSQLSNNSVSFFLYNLDHSHANYYFCNLSIFDPPPFKVTLTGGYLHIYESQLCCQLKFWLPIGCAAFVVVCILGCILICWLTKKKYSSSVHDPNGEYMFMRAVNTAKKSRLTDVTL
notes: whole, on cells
B5: human B7-2 on transfected cells (ligand, UniProt P42081 24-329, looked up)
chain: APLKIQAYFNETADLPCQFANSQNQSLSELVVFWQDQENLVLNEVYLGKEKFDSVHSKYMGRTSFDSDSWTLRLHNLQIKDKGLYQCIIHHKKPTGMIRIHQMNSELSVLANFSQPEIVPISNITENVYINLTCSSIHGYPEPKKMSVLLRTKNSTIEYDGVMQKSQDNVTELYDVSISLSVSFPDVTSNMTIFCILETDKTRLLSSPFSIELEDPQPPPDHIPWITAVLPTVIICVMVFCLILWKWKKKKRPRNSYKCGTNTMEREESEQTKKREKIHIPERSDEAQRVFKSSKTSSCDKSDTCF
notes: whole, on cells; also called CD86

Assays:
B7x-Ig [1] = target: T1, B7x-Ig (human, UniProt Q7Z7D3 25-259; P01857 99-330 = IgG part, limits assumed); assay: FACS on 3T3 or CT26 transfectants, PE anti-human IgG Fc
T1 construct: extracellular domain;domain: Fc; Made in Drosophila S2 cells; Used as a control fusion protein; also called B7x-Ig fusion protein
T1 sequence (Q7Z7D3 other isoform, or with tags, fused parts or gaps limits assumed): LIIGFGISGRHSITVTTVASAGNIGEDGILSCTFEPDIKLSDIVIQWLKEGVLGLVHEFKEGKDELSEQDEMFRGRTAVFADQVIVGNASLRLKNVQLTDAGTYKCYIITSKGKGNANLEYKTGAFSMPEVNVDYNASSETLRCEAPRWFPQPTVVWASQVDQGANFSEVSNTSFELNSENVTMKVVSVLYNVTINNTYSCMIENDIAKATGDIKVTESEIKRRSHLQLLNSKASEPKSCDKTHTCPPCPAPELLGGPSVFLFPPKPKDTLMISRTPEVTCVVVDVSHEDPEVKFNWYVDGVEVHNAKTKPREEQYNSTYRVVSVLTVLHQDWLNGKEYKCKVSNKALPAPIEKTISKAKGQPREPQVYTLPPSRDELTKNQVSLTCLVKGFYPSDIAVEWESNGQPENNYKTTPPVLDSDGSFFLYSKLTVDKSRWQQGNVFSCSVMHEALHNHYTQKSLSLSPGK
Protocol: (§1) Antibodies and flow cytometry. Cells were incubated with Fc blocking reagents and then stained with combinations of the following anti-human antibodies: CD152-PE, CD28-PE, B7-1-PE, B7-2-PE, PD-1-PE, PD-L1-PE, PD-L2-PE, ICOS-PE, ICOSL-PE, B7H4-PE, CD14-FITC, CD19-FITC, CD8a-Percp-Cy5.5, CD4-APC, CD83-APC, streptavidin and isotype controls (eBioscience). Biotinylated anti-hB7-H3 was purchased from R&D. For receptor binding, cells were incubated with HHLA2-Ig, B7x-Ig, or control Ig for 45 min on ice and then stained with PE-anti-human IgG Fc (Jackson Immunoresearch). Samples were acquired on a FACSCalibur, LSRII or LSRII yellow (BD Biosciences), and analyzed with FlowJo (Treestar).

B7x-Ig [2] = target: T1, B7x-Ig; assay: FACS on 3T3 transfectants, PE anti-human IgG Fc
Protocol: as §1

[3] = target: T2, Fc portion of human IgG1 (Ig control) (human, UniProt P01857-1 99-330 = IgG part, limits assumed); assay: FACS on 3T3 transfectants, PE anti-human IgG Fc
T2 construct: domain: Fc; Control protein made in Drosophila S2 cells; also called control Ig; human IgG1 Fc tag
Protocol: as §1

Binder	binding result (B7x-Ig [1])	binding result (B7x-Ig [2])	binding result [3]
B1	no binding		
B2	no binding		
B3	no binding		
B4		no binding	no binding
B5	no binding		

Reference: patent publication US20160002337A1 (ALBERT EINSTEIN COLLEGE OF MEDICINE, published 2016)
